# In article PMC6941230:
# T1: Rox1 (Saccharomyces cerevisiae, UniProt P25042 1-368)
# T1 sequence: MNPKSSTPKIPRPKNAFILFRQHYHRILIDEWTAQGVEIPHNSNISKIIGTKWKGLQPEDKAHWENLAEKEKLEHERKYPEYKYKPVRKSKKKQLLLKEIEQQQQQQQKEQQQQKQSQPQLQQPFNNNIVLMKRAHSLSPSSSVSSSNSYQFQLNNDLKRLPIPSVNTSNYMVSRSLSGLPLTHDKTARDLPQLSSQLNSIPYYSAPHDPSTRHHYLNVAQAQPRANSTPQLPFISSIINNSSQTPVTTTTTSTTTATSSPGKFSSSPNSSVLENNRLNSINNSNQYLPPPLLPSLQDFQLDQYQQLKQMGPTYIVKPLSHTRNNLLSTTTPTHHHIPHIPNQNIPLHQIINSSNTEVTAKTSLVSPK
# B1: HMG6bp (dsDNA)
# DNA 1: TGATTGTCAATTTAGTTAATCATTGTTATTAATAAAGGAAAGATATAAAA
# DNA 2: TTTTATATCTTTCCTTTATTAATAACAATGATTAACTAAATTGACAATCA
# Target: T1, Rox1
# Experiment: EMSA
binder,measurement,value
B1,binding result,binds
